{
  "source": "patent US9655377",
  "about": "“Methods of controlling fructan synthesis in plants” (COMMONWEALTH SCIENTIFIC AND INDUSTRIAL RESEARCH ORGANISATION)",
  "key": {"[1]": {"molecular_target": "T1, TaMYB13-1 (correctly spliced form) (Triticum aestivum)", "T1 chain": "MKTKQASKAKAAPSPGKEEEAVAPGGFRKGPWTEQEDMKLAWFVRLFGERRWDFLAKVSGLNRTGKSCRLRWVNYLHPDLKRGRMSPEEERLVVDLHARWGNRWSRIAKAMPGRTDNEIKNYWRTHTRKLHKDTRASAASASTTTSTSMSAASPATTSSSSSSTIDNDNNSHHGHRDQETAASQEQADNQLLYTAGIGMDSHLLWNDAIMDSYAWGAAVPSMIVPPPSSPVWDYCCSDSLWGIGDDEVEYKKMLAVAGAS", "assay": "higher affinity than Ta1-SST S1; assayed oligonucleotide may be longer", "settings": "tags: C-terminal 6xHis-tagged CELD cellulase reporter fusion", "experimental": "(§1) The DNA-binding activity of TaMYB13-CELD was measured as described previously (Xue, 2002a) using streptavidin-coated 96-well plate and binding/washing buffer (25 mM HEPES/KOH, pH 7.0, 50 mM KCl, 0.2 mM EDTA and 0.5 mM DTT) containing 0.15 µg µl^-1 shared herring sperm DNA, 0.3 mg ml^-1 bovine, serum albumin, 10% glycerol and 0.025% Nonidet P-40. 40,000 fluorescent units h^-1 of the CELD activity of TaMYB13-CELD protein and 2 pmol of biotinylated probes were used per assay. The cellulase activity of TaMYB13-CELD proteins bound to immobilised biotinylated probes was assayed by incubation in 100 μl of the CELD substrate solution [1 mM methylumbelliferyl β-D-cellobioside (MUC) in 50 mM Na-citrate buffer, pH 6.0] at 40° C. for 3 h. A biotin-labelled double-stranded oligonucleotide without a TaMYB13 binding site was used as a control of background activity."}, "[2]": {"molecular_target": "T1, TaMYB13-1 (correctly spliced form)", "assay": "no or negligible activity; did not compete with SynO2m14", "settings": "tags: C-terminal 6xHis-tagged CELD cellulase reporter fusion; label: biotin", "experimental": "(§2) The DNA-binding activity of TaMYB13-CELD was measured as described previously (Xue, 2002a) using streptavidin-coated 96-well plate and binding/washing buffer (25 mM HEPES/KOH, pH 7.0, 50 mM KCl, 0.2 mM EDTA and 0.5 mM DTT) containing 0.15 µg µl^-1 shared herring sperm DNA, 0.3 mg ml^-1 bovine, serum albumin, 10% glycerol and 0.025% Nonidet P-40. 40,000 fluorescent units h^-1 of the CELD activity of TaMYB13-CELD protein and 2 pmol of biotinylated probes were used per assay. […]\n(§3) Binding site competition assays were as described by Xue (2002). […] Relative TaMYB13 binding activity was expressed as fluorescence units (FU) of methylumbelliferyl group generated from MUC hydrolysis by TaMYB13-CELD that bound to an immobilised biotin-labelled probe after 3-h incubation of cellulase assay.\n(§4) To further analyse the relative binding affinity of the previously reported plant R2R3 MYB protein sites in relation to the preferred TaMYB13-binding site, a binding site competition analysis was performed. Relative TaMYB13 binding activity to three biotin-labelled probes (SynO2m14, MYB.Ph3-II and MRE2) was assessed in combination with or without one of the four unlabelled competitors in a 2.5-fold amount: SynO2m14, MYB.Ph3-II, MRE2 and AC-I. The addition of a 2.5-fold amount of unlabelled SynO2m14 to biotin-labelled SynO2m14 reduced the TaMYB13 binding activity by about 60%. […]"}, "[3]": {"molecular_target": "T1, TaMYB13-1 (correctly spliced form)", "assay": "relative to SynO2m14", "settings": "tags: C-terminal 6xHis-tagged CELD cellulase reporter fusion; label: biotin"}, "[4]": {"molecular_target": "T1, TaMYB13-1 (correctly spliced form)", "assay": "no or negligible activity, relative to SynO2m14", "settings": "tags: C-terminal 6xHis-tagged CELD cellulase reporter fusion; label: biotin"}, "[5]": {"molecular_target": "T1, TaMYB13-1 (correctly spliced form)", "assay": "assayed oligonucleotide may be longer", "settings": "tags: C-terminal 6xHis-tagged CELD cellulase reporter fusion"}, "[6]": {"molecular_target": "T1, TaMYB13-1 (correctly spliced form)", "assay": "CELD reporter assay; positive control", "settings": "tags: C-terminal 6xHis-tagged CELD cellulase reporter fusion; label: biotin", "experimental": "as §1"}, "[7]": {"molecular_target": "T1, TaMYB13-1 (correctly spliced form)", "assay": "background control", "settings": "tags: C-terminal 6xHis-tagged CELD cellulase reporter fusion; label: biotin", "experimental": "as §1"}, "[8]": {"molecular_target": "T1, TaMYB13-1 (correctly spliced form)", "assay": "CELD reporter plate assay, 25 mM HEPES pH 7.0, 50 mM KCl; self-competition at 2.5x reduced binding about 60%", "settings": "tags: C-terminal 6xHis-tagged CELD cellulase reporter fusion; label: biotin", "experimental": "as §2, §3, §4"}, "[9]": {"molecular_target": "T1, TaMYB13-1 (correctly spliced form)", "assay": "higher affinity than S3; assayed oligonucleotide may be longer", "settings": "tags: C-terminal 6xHis-tagged CELD cellulase reporter fusion", "experimental": "as §1"}, "[10]": {"molecular_target": "T1, TaMYB13-1 (correctly spliced form)", "assay": "no or negligible activity", "settings": "tags: C-terminal 6xHis-tagged CELD cellulase reporter fusion; label: biotin"}},
  "data": [
    {"binder": "Ta1-SST S2 site (dsDNA) DNA 1: ATGTTCGGTAA DNA 2: TTACCGAACAT", "values": [
      {"measurement": "binding result", "setting": "[1]", "result": "binds"}
    ]},
    {"binder": "AC-I (rev-comp) (dsDNA) DNA 1: TCGAGGGAATAAGGTAGGTGGATGATGT DNA 2: ACATCATCCACCTACCTTATTCCCTCGA", "values": [
      {"measurement": "binding result", "setting": "[2]", "result": "no binding"}
    ]},
    {"binder": "AC-III (dsDNA) DNA 1: TCGAGGGAATAAAGTTAGGTTATGATGT DNA 2: ACATCATAACCTAACTTTATTCCCTCGA", "values": [
      {"measurement": "binding result", "setting": "[3]", "result": "binds"}
    ]},
    {"binder": "MYB.Ph3-I (dsDNA) DNA 1: TCGAGGGAATAAAAACGGTTATGATGT DNA 2: ACATCATAACCGTTTTTATTCCCTCGA", "values": [
      {"measurement": "binding result", "setting": "[4]", "result": "no binding"}
    ]},
    {"binder": "Hv6-SFT S1 site (dsDNA) DNA 1: TATGTTAGGTAC DNA 2: GTACCTAACATA", "values": [
      {"measurement": "binding result", "setting": "[5]", "result": "binds"}
    ]},
    {"binder": "SynO2 (dsDNA) DNA 1: TCGACCGAATAAAGTTTGGTATGATGT DNA 2: ACATCATACCAAACTTTATTCGGTCGA", "values": [
      {"measurement": "binding result", "setting": "[6]", "result": "binds"}
    ]},
    {"binder": "control without TaMYB13 site (dsDNA) DNA 1: GAGAATTTGCCGTTTATCTAGAAATTACCT DNA 2: AGGTAATTTCTAGATAAACGGCAAATTCTC", "values": [
      {"measurement": "binding result", "setting": "[7]", "result": "no binding"}
    ]},
    {"binder": "SynO2m14 (dsDNA) DNA 1: TCGAGGGAATAAAGTTAGGTAAGATGT DNA 2: ACATCTTACCTAACTTTATTCCCTCGA", "values": [
      {"measurement": "binding result", "setting": "[8]", "result": "binds"}
    ]},
    {"binder": "Ta6-SFT1 S1 site (dsDNA) DNA 1: TGTTAGGTTCGGTT DNA 2: AACCGAACCTAACA", "values": [
      {"measurement": "binding result", "setting": "[9]", "result": "binds"}
    ]},
    {"binder": "MRE (rev-comp) (dsDNA) DNA 1: TCGAGGGAATAATTTTTGGTTTGATGT DNA 2: ACATCAAACCAAAAATTATTCCCTCGA", "values": [
      {"measurement": "binding result", "setting": "[10]", "result": "no binding"}
    ]}
  ]
}
